Results as given in publication PMC10054347.

Key:
Cytochrome c = Cytochrome c (equine (heart), UniProt P00004 2-105); test: bead-based affinity chromatography, fluorescence; PBS pH 7.4, room temperature, 1 h; EMSA 500 nM oligo + 200 µM protein, 5% agarose; bead assay with bead-immobilized protein, Alexa488 oligo 1-60 nM (lysozyme) o
Chymotrypsin (CTRC) = Chymotrypsin (CTRC) (bovine (pancreas), UniProt P00766 1-245); test: as above
Lysozyme C = Lysozyme C (Gallus gallus (Chicken), UniProt P00698 19-147); test: as above
BSA = BSA (Bos taurus (Bovine), UniProt P02769 25-607); test: EMSA; PBS pH 7.4, room temperature
Chymotrypsin = Chymotrypsin (Bos taurus (Bovine), UniProt P00766;P00766;P00766 1-13;16-146;149-245); test: pulldown; PBS pH 7.4, room temperature

Lysozyme C, sequence (P00698 19-147): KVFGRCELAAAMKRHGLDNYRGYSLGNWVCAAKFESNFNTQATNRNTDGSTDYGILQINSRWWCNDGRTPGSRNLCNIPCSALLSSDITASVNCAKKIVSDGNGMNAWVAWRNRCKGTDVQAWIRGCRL
Cytochrome c, sequence (P00004 2-105): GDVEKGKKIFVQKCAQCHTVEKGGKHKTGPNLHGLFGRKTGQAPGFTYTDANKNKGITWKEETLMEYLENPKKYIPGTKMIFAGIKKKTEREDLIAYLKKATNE
BSA, sequence (P02769 25-607): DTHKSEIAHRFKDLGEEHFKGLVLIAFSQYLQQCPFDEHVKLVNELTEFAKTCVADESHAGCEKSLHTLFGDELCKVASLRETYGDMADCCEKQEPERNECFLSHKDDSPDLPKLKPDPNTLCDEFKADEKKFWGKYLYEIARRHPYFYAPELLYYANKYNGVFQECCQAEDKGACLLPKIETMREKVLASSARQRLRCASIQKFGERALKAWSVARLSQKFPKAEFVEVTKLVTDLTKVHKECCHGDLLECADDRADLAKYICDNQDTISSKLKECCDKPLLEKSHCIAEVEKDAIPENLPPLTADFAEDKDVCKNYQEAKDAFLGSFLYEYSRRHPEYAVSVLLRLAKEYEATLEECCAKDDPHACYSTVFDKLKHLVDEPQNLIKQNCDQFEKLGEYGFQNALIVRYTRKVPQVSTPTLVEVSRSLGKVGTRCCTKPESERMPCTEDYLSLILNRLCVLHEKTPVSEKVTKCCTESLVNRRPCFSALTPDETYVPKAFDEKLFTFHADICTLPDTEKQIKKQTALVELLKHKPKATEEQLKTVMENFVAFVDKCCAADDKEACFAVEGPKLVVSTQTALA

B1: oligonucleotide 2, Alexa488 (ssDNA)
DNA: CGGTCCTCAGATGTGATTCCATCCTTCTTTTGAGCAAACTACCTGTATAACGTAAGTCCGTGTGTGCGAA
Cytochrome c
  Kd: 1100 nM
Chymotrypsin (CTRC)
  Kd: 3300 nM
Lysozyme C
  Kd: 8 nM

B2:  (ssDNA)
DNA: CGGTCCTCAGATGTGATTCCATCCTTCTTTTGAGCAAACTACCTGTATAACGTAAGTCCGTGTGTGCGAA
BSA
  binding result: no binding
Chymotrypsin
  Kd: 3300 nM

B3: oligonucleotide 1, Alexa488 (ssDNA)
DNA: ATAAATTTAAGACATGAAAAAATAAATTTTTATTTTTTTACGTTTTTATT
Cytochrome c
  Kd: 1400 nM
Chymotrypsin (CTRC)
  Kd: 1400 nM
Lysozyme C
  Kd: 14 nM

B4:  (ssDNA)
DNA: ATAAATTTAAGACATGAAAAAATAAATTTTTATTTTTTTACGTTTTTATT
BSA
  binding result: no binding
Chymotrypsin
  Kd: 1400 nM
